By Kd is commonly meant a measure of binding affinity in units of concentration. The koff is the first-order rate constant of dissociation. Higher therefore signals fast dissociation. The kon is a measure of how fast the partners come together. The low end stands for slower complex formation, the high end for faster complex formation.

The target in assay [1] is T1, Monomeric human CD48-mmH (human).
T1 construct: also called soluble CD48 expressed with a myc-myc-hexa-histidine C-terminal tag [mmH]
T1 chain: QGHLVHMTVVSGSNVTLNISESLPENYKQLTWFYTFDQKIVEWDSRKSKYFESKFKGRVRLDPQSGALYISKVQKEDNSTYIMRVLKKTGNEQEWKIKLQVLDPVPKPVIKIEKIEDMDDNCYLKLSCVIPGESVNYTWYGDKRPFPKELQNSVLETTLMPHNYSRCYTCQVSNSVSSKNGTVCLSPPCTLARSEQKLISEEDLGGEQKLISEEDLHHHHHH
Briefly: SPR (Biacore T100), 25 C, antibody captured by anti-Fc, monomeric CD48-mmH in solution. Here is the method: (§1) Measurements were conducted on a T100-2 BIACORE™ instrument (Biacore Life Sciences division of GE Healthcare, Piscataway, N.J.). Antibodies (either with mouse Fc [designated “H2M” or “H3M”] or human IgG4 Fc [designated “H4H”]) were captured through an anti-Fc chip surface, and CD48 was flowed over the surface either in a monomeric (soluble CD48 expressed with a myc-myc-hexa-histidine C-terminal tag [mmH]) or dimeric (soluble CD48 expressed with a C-terminal Fc fusion [mFc]) format.
(§2) The soluble CD48 was applied to the flow cell in separate injections at different concentrations, and kinetic association (kₐ) and dissociation (kd) rate constants were determined by fits to the kinetic binding data using Biacore software. Binding dissociation equilibrium constants and dissociation half-times were calculated from the kinetic rate constants as: KD=kd/kₐ; t_{1/2}=(ln 2/kd) (units: ka=M⁻¹*s⁻¹; kd=s⁻¹; KD=M; T½=min) (Tables 3-6).

Assay [2] addresses T2, Dimeric human CD48-mFc (human).
T2 chain: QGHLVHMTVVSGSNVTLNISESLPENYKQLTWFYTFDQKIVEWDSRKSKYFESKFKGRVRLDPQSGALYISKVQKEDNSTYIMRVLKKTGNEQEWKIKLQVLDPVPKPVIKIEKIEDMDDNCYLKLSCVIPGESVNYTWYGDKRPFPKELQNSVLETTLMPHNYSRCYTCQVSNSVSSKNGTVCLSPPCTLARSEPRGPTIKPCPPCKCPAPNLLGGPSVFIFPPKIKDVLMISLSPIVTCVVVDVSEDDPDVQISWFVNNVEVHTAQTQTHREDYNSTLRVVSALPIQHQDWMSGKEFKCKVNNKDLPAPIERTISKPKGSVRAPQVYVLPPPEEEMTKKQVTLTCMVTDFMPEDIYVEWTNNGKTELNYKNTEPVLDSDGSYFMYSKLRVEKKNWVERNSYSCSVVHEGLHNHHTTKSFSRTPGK
The experiment in a line: SPR (Biacore T100), 25 C, antibody captured by anti-Fc, dimeric CD48-mFc in solution. Here is the method: as §1, §2
(Surface plasmon resonance follows binding to a sensor surface in real time, without labels.)

The target in assay [3] is T3, Monomeric human CD48-mmH (human).
T3 chain: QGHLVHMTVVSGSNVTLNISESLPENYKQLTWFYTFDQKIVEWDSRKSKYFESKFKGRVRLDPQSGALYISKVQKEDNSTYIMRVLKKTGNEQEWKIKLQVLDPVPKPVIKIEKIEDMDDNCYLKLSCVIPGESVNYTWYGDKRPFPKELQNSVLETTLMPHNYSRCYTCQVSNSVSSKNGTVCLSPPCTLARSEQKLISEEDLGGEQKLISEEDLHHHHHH
The experiment in a line: SPR (Biacore), antibody captured by anti-Fc, CD48 in solution, 37 C. Here is the method: as §1, §2

For assay [4], the target named is T4, Dimeric human CD48-mFc (human).
T4 construct: the whole entry is the construct; also called hCD48-mFc
T4 chain: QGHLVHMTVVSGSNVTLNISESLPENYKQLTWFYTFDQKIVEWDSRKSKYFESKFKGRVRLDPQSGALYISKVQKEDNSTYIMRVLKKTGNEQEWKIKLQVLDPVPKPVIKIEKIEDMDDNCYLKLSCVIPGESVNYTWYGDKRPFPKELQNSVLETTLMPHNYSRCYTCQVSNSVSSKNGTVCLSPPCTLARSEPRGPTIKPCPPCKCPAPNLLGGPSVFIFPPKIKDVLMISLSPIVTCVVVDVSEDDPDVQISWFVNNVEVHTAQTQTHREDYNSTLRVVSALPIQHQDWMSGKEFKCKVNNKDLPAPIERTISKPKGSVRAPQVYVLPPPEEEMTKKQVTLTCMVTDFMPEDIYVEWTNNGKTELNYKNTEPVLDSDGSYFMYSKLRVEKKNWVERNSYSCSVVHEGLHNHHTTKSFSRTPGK
The description is as above. Here is the method: as §1, §2

B1: H4H1764N (antibody, human IgG4, V domains shown)
VH: QVQLVESGGGVVQPGRSLRLSCAASGFTFSDYGMHWVRQAPGKGLEWVAVIWNDGSNKNYADSVKGRFSISSDSSKNTLYLHMNSLRAEDTAVYYCARSLYSTSPWYFDLWGRGTLVTVSS
VL: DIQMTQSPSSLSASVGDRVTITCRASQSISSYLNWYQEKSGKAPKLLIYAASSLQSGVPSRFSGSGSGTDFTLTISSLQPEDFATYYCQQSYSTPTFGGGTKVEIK
notes: Human IgG4 Fc (prefix H4H)
Regarding B1, in the assay with Monomeric human CD48-mmH [1], the Kd is 23.6 nM, the T½ came out at 5 min, the koff was 0.00248 s⁻¹ and the kon was determined as 105000 M⁻¹ s⁻¹. Further, in the assay with Dimeric human CD48-mFc [2], the Kd is 0.226 nM, the T½ was 191 min, the off-rate (koff) worked out at 6.05e-05 s⁻¹ and the association rate constant (kon) was determined as 268000 M⁻¹ s⁻¹.

B2: H2M1763N (antibody, mouse IgG2, V domains shown)
VH: QIQLVQSGAEMKRPGTSVKVSCKASGYTFTSYGINWVRQAPGQGLEWMGWISAYNGDTNYAQKLQGRVTMTTDTSTTTAYMEVRSLRSDDTAVYYCARFLTGTKDYYYGMDVWGQGTTVTVSS
VL: DIQMTQSPSSLSASVGDRVTITCQASQDISNFLNWYQQKPGKAPDLLINDASILETGVPSRFSGSGSGTDFTLTINNLQPEDIATYYCQQYDNLPLTFGGGTKVEIK
notes: Human variable domains, mouse IgG2 Fc (H2M)
In the assay with Monomeric human CD48-mmH [3], B2 came in with a dissociation constant Kd of 13.5 nM, a T½ of 1 min, a koff of 0.0201 s⁻¹ and a kon of 1.49e+06 M⁻¹ s⁻¹. In the assay with Dimeric human CD48-mFc [4], this molecule returned a Kd of 0.293 nM, a T½ of 13 min, a koff of 0.000883 s⁻¹ and a kon of 3.02e+06 M⁻¹ s⁻¹.

B3: H4H1763N (antibody, human IgG4, V domains shown)
VH: QIQLVQSGAEMKRPGTSVKVSCKASGYTFTSYGINWVRQAPGQGLEWMGWISAYNGDTNYAQKLQGRVTMTTDTSTTTAYMEVRSLRSDDTAVYYCARFLTGTKDYYYGMDVWGQGTTVTVSS
VL: DIQMTQSPSSLSASVGDRVTITCQASQDISNFLNWYQQKPGKAPDLLINDASILETGVPSRFSGSGSGTDFTLTINNLQPEDIATYYCQQYDNLPLTFGGGTKVEIK
notes: Human IgG4 Fc (prefix H4H)
For the molecule B3, in the assay with Monomeric human CD48-mmH [1], binding was characterised by a dissociation constant (Kd) of 8.2 nM, the T½ turned out to be 2 min, the koff came to 0.00631 s⁻¹ and the on-rate constant (kon) came out at 769000 M⁻¹ s⁻¹. In the assay with Dimeric human CD48-mFc [2], this molecule gave a dissociation constant (Kd) of 0.0268 nM, a T½ of 211 min, a koff of 5.48e-05 s⁻¹ and an on-rate (kon) of 2.05e+06 M⁻¹ s⁻¹.

B4: H2M1712N (antibody, mouse IgG2, V domains shown)
VH: QIQLVQSGAEMKRPGTSVKVSCKASGYTFSSYGINWVRQAPGQGLEWMGWISAYNGDTNYAQKLQGRVTMTTDTSTTTAYMEVRSLRSDDTAVYYCARFLTGTKDLYYGMDVWGQGTTVTVSS
VL: DIQMTQSPSSLSASVGDRVTITCQASQDISNFLNWYQQKPGKAPDLLINDASILETGVPSRFSGSGSGTDFTLTINSLQPEDIATYYCQQYDNLPLTFGGGTKVEIK
notes: as for B2
For B4, in the assay with Monomeric human CD48-mmH [3], the Kd is 16.6 nM, the T½ came to 1 min, the koff is 0.014 s⁻¹ and the on-rate constant (kon) is 846000 M⁻¹ s⁻¹. In the assay with Dimeric human CD48-mFc [4], binding was characterised by a dissociation constant (Kd) of 0.252 nM, the T½ was 17 min, the koff was 0.000685 s⁻¹ and the on-rate constant (kon) came out at 2.72e+06 M⁻¹ s⁻¹.

B5: H2M1707N (antibody, V domains shown)
VH: EGQLLESGGGLAQPGGSLRLSCAASGITFGRYAMSWVRQAPGKGLEWVSLISGSGGSTYHADSVKGRFTISRDNSKNTLYLQMNSLRAEDTAVYYCAIYNNYNWFDPWGQGTLVTVSS
VL: EIVLTQSPGTLSLSPGERATLSCRASQSVSSNYLAWYQQKPGQAPRLLIYDASSRATDIPDRFSGSGSGTDFTLTISRLEPEDFAVYYCQQYGSSPRTFGQGTKVEIK
notes: as for B2
As for B5, in the assay with Monomeric human CD48-mmH [3], the Kd turned out to be 14.7 nM, the T½ is 4 min, the koff was found to be 0.00314 s⁻¹ and the kon stood at 214000 M⁻¹ s⁻¹. For the same molecule, in the assay with Dimeric human CD48-mFc [4], the Kd was determined as 0.247 nM, the T½ stood at 51 min, the koff is 0.000227 s⁻¹ and the kon was found to be 920000 M⁻¹ s⁻¹.

B6: H2M1709N (antibody, mouse IgG2, V domains shown)
VH: QVQLVQSGAEVKKPGASVKVSCKVSGYTLTELSIHWVRQAPGKGLEWMGGFDPEDGETIYAQKFQGRVNMTEDTSTDTAYMELSSLRSDDTTVYFCASLLPYFDYWGQGTLVTVSS
VL: EIVLTQSPGTLSLSPGERATLSCRASQSVSSSYLAWYQQKPGQAPRLLIYGASSRATGIPDRFSGSGSGTDFTLSISRLEPEDFAVYFCQQYGSSMYTFGQGTKLEIK
notes: as for B2
In the assay with Monomeric human CD48-mmH [3], B6 had a Kd of 35.1 nM, a T½ of 0 min, a koff of 0.04 s⁻¹ and an association rate constant (kon) of 1.14e+06 M⁻¹ s⁻¹. In the assay with Dimeric human CD48-mFc [4], the Kd stood at 0.248 nM, the T½ was 31 min, the off-rate (koff) is 0.000377 s⁻¹ and the kon is 1.52e+06 M⁻¹ s⁻¹.

The values are drawn from patent publication US20130230533A1 (Regeneron, published 2013).
